Results: patent US8257949B2, “Self-priming polysialyltransferase” (National Research Council of Canada, priority 2006, dated 2012)

Tests used:
Type in all cases: biochemical
[1] = Comparison of PST-16 and PST-17 sialic acid polymerization, CE analysis; settings: for formation of long sialic acid polymers: CE analysis; for amount of polysialic acid relative to all other sialylated species: Lac-FCHASE acceptor, FIG. 5
Text: The dotted line represents PST-16; the solid line represents PST-17. Arrows indicate the positions of Lactose (lac), GD3, GQ4, and polysialylated products conjugated to more than four sialic acid residues. The amount of polysialic acid relative to all other sialylated species ([…] sialic acid moieties) is about 50% in for each reaction.
Sialylation of the starting material: (▪), +1 NeuAc; ( ? ), +2 NeuAc; (□), +3 NeuAc; ( ? ), 4 NeuAc; ( ? ), >4 NeuAc (▪). 6A is PST-16 with Lac-FCHASE substrate. 6B is PST-17 with Lac-FCHASE substrate. 6C is PST-16 with T-Ag-FCHASE substrate. 6D is PST-17 with T-Ag-FCHASE substrate.
A fusion of Cst-II from C. jejuni OH4384 and the E. coli PST protein (PST-16) was generated and compared to the and N. meningitidis fusion (PST-17). Enzymatic activities of the two fusion proteins were determined and compared. […] See, e.g., FIGS. 5 and 6.

[2] = Poly-sialylation of glycopeptide acceptor by PST17, TLC and CE analysis
Experimental: The control reaction lacked CMP-sialic acid. […] Disialylated products and products with more than 45 sialic acid residues are indicated with arrows.
The poly-sialyltransferase of PST17 was tested using a partially glycosylated IFNα2b[GalNAc-Gal-NeuAc]-FCHASE glycopeptide. Assay conditions were as follows: 50 mM NaHEPES pH 7.5, 5 mM MnCl2, 5 mM MgCl2, 5 mM CMP-NeuAc, 0.0684 mM IFNα2b[GalNAc-Gal-NeuAc]-FCHASE glycopeptide. Reactions were incubated at 37° C. for 1 hour and 2 hours. […] After 1 hour incubation at 37° C. there is 49.9% conversion to sialylated product and after 2 hours there is 62.5% conversion to sialylated product. […] A glycopeptide acceptor was also a very good acceptor for the PST-17 fusion protein, and long PSA polymers could be seen in CE analysis of those reactions. (Data not shown.) The glyco-peptide acceptors, NH2-VGVT[GalNAc-α-]ETP-COOH (SEQ ID NO:32), were obtained from Sussex Research Laboratories (Ottawa, Canada) and then N-terminally labelled with FCHASE as described for the amino-phenyl glycosides.

[3] = PST-17 time course on disaccharide acceptor; settings: single addition of enzyme, fixed donor concentration
Experimental: A comparison of acceptors substrates was performed using Lactose, N-acetyllactosamine, and Gal-β-1,3-GalNAc-α (T-Ag) disaccharide acceptors. […] See, e.g., FIG. 7.

[4] = Polysialic acid synthesis, fusion protein versus mixture of unfused parent enzymes; settings: T-Ag-containing glycopeptides
Text: FIG. 9 provides a comparison of polysialic acid synthesis activity using a mixture of unfused Cst-II and PST-13 enzymes or the PST-17 fusion enzyme. The sialic acid acceptor was the glycopeptide interferon α2b-[TAg]-FCHASE. FIG. 9A is the unfused enzyme mixture: CST-81 and PST-13. FIG. 9B is the PST-17 fusion enzyme. Figure legend: IFNα2b-[TAg]-FCHASE (Starting material) (▪); +1 NeuAc ( ? ); +2 NeuAc (□); +3 NeuAc ( ? ); +4 NeuAc ( ? ); >4 NeuAc (▪).
In order to evaluate whether the fusion protein functions more efficiency than the unfused parent enzymes mixed together, we performed experiments where we controlled the stoichiometry of the individual sialyltransferases. The stoichiometry of the mixtures was calculated using gel densitometry. Care was taken not to overload the gels so that the protein bands were not saturated. Gels were stained with SYPRO Orange and protein was quantitated with software provided with Imager system. Reactions contained 4 μM enzyme based on the percentage present in the separate preparations.
See, e.g., FIG. 9. Although less striking, similar results were obtained using a mono-sialylated T-Ag-glycopeptide (S-T-Ag-glycopeptide) acceptor also. See, e.g., FIG. 10.

[5] = Activity of self-priming poly-sialyltransferase proteins in E. coli supernatant or pellet, CE assay; parameters: Specific Activity: unit not given here; settings: for Activity / Specific Activity: 24 hour sample; for Percent GM3: FCHASE-GM3 found in the product
Experimental: The self-priming poly-sialyltransferase proteins were expressed in E. coli cells and growth conditions for optimal protein expression were determined. Similar results were obtained for all three fusions; therefore, results are shown only for the PST-17 fusion. Cells were grown at 20° C., 25° C. and 30° C. for four different time periods. Aliquots of 1.5 mL were harvested, sonicated, and then centrifuged at 10,000×g for 10 mm. Expression of the self-priming poly-sialytransferase proteins increased with time at all […] temperatures.
Enzymatic activities of the self-priming poly-sialytransferase proteins were confirmed. Only the 24 hour samples of FIG. 4 were assayed Assays were done using the following reaction mixture: 0.5 mM FCHASE-Lac, 50 mM NaHEPES pH 7.5, 10 mM MgCl2, 5 mM CMP-NeuAc and 50% volume bacterial supernatant or pellet Reactions were incubated at 37° C. for 10 min and analyzed by capillary electrophoresis. […] For example, in the PST-17 20° C. supernatant, 9% of the substrate is converted into product, but most product is FCHASE-GM3. In contrast, in the PST-21 20° C. supernatant, 7% of the substrate is converted into product with 68% FCHASE-GM3, the remaining products containing longer sialic acid polymers. […] The highest levels of activity are shown in bold font.

B1: PST-16: fusion of Cst-II from C. jejuni OH4384 and the E. coli PST protein, SEQ ID NO: 15 (protein)
chain: MKKVIIAGNGPSLKEIDYSRLPNDFDVFRCNQFYFEDKYYLGKKCKAVFYNPSLFFEQYYTLKHLIQNQEYETELIMCSNYNQAHLENENFVKTFYDYFPDAHLGYDFFKQLKDFNAYFKFHEIYFNQRITSGVYMCAVAIALGYKEIYLSGIDFYQNGSSYAFDTKQKNLLKLAPNFKNDNSHYIGHSKNTDIKALEFLEKTYKIKLYCLCPNSLLANFIELAPNLNSNFIIQEKNNYTKDILIPSSEAYGKFSKNINFGGGHMIFDASLKKLRKLFVNPIGFFRDSWFFNSKNKAEELLSPLKIKSKNIFIISNLGQLKKAESFVQKFSKRSNYLIVLATEKNTEMPKIIVEQINNKLFSSYKVLFIPTFPNVFSLKKVIWFYNVYNYLVLNSKAKDAYFMSYAQHYAIFVYLFKKNNIRCSLIEEGTGTYKTEKENPVVNINFYSEIINSIILFHYPDLKFENVYGTYPILLKKKFNAQKFVEFKGAPSVKSSTRIDNVIHKYSITRDDIIYANQKYLIEHTLFADSLISILLRIDKPDNARIFIKPHPKEPKKNINAIQKAIKKAKCRDIILITEPDFLIEPVIKKAKIKHLIGLTSSSLVYAPLVSKRCQSYSIAPLMIKLCDNDKSQKGINTLRLHFDILKNFDNVKILSDDITSPSLHDKRIFLGE
- consumption of the acceptor [1]: consumed completely
- formation of long sialic acid polymers [1]: did not detect formation of long sialic acid polymers
- amount of polysialic acid relative to all other sialylated species [1]: about 50%

B2: PST-17: truncated CstII from OH4384 fused to the Neisseria Pst, SEQ ID NO:2 (protein)
chain: MKKVIIAGNGPSLKEIDYSRLPNDFDVFRCNQFYFEDKYYLGKKCKAVFYNPSLFFEQYYTLKHLIQNQEYETELIMCSNYNQAHLENENFVKTFYDYFPDAHLGYDFFKQLKDFNAYFKFHEIYFNQRITSGVYMCAVAIALGYKEIYLSGIDFYQNGSSYAFDTKQKNLLKLAPNFKNDNSHYIGHSKNTDIKALEFLEKTYKIKLYCLCPNSLLANFIELAPNLNSNFIIQEKNNYTKDILIPSSEAYGKFSKNINFGGGHMLKKIKKALFQPKKFFQDSMWLTTSPFYLTPPRNNLFVISNLGQLNQVQSLIKIQKLTNNLLVILYTSKNLKMPKLVHQSANKNLFESIYLFELPRSPNNITPKKLLYIYRSYKKILNIIQPAHLYMLSFTGHYSYLISIAKKKNITTHLIDEGTGTYAPLLESFSYHPTKLERNLIGNNLNIKGYIDHFDILHVPFPEYAKKIFNAKKYNRFFAHAGGISINNNIANLQKKYQISKNDYIFVSQRYPISDDLYYKSIVEILNSISLQIKGKIFIKLHPKEMGNNYVMSLFLNMVEINPRLVVINEPPFLIEPLIYLTNPKGIIGLASSSLIYTPLLSPSTQCLSIGELIINLIQKYSMVENTEMIQEHLEIIKKFNFINILNDLNGVISNPLFKTEETFETLLKSAEFAYKSKNYFQAIFYWQLASKNNITLLGHKALWYYNALYNVKQIYKMEYSDIFYIDNISVDFHSKDKLTWEKIKHYYYFADNRIGRDR
- conversion to sialylated product ([2]; 1 hour incubation at 37° C.): 49.9%
- conversion to sialylated product ([2]; 2 hours at 37° C.): 62.5%
- sialic acid residues on products ([2]; CE analysis, FIG. 8): more than 45
- Lac-FCHASE consumed [3]: essentially all
- T-Ag material consumed [3]: 72%
- polysialic acid product relative to the combination of unfused parent enzymes [4]: four times as much
- polysialic acid product (PSA) ([4]; 4 μM enzyme): 17%
- formation of long sialic acid polymers [1]: formation of long polymers happens from the earliest time points
- amount of polysialic acid relative to all other sialylated species [1]: about 50%
- substrate converted into product ([5]; 20° C. supernatant, 37° C. for 10 min): 9%
- Activity ([5]; 20° C., P (pellet)): 3.270 mU/mL
- Specific Activity ([5]; 20° C., P (pellet)): 8.959
- Percent GM3 ([5]; 20° C., P (pellet)): 98%
- Activity ([5]; 20° C., S (supernatant)): 5.570 mU/mL
- Specific Activity ([5]; 20° C., S (supernatant)): 2.637
- Percent GM3 ([5]; 20° C., S (supernatant)): 88%
- Activity ([5]; 25° C., P (pellet)): 9.329 mU/mL
- Specific Activity ([5]; 25° C., P (pellet)): 11.945
- Percent GM3 ([5]; 25° C., P (pellet)): 59%
- Activity ([5]; 25° C., S (supernatant)): 8.192 mU/mL
- Specific Activity ([5]; 25° C., S (supernatant)): 3.378
- Percent GM3 ([5]; 25° C., S (supernatant)): 67%
- Activity ([5]; 30° C., P (pellet)): 13.355 mU/mL
- Specific Activity ([5]; 30° C., P (pellet)): 15.228
- Percent GM3 ([5]; 30° C., P (pellet)): 51%
- Activity ([5]; 30° C., S (supernatant)): 3.976 mU/mL
- Specific Activity ([5]; 30° C., S (supernatant)): 1.893
- Percent GM3 ([5]; 30° C., S (supernatant)): 58%
